Target: T1, KLC2-TPR S328N mutant (human, UniProt Q9H0B6-1 217-480, S328N)
T1 construct: kinesin light chain 2 (KLC2), human, TPR domain, residues 217-480 of GenBank NP_073733, with S328N; made from the KLC2-TPR construct with a QuickChange kit; also called KLC2-S328N; not shown: His6 (from the vector pET28-LIC, modified)
Experiment: ITC; peptide (1-3 mM) in the syringe injected into 60-130 uM KLC1-TPR or KLC2-TPR (or mutant) in the cell; 25 C; 20 mM Bis-Tris pH 6.5, 500 mM NaCl, 0.5 mM TCEP; one-site binding model
Conditions: both partners purified

T1 sequence (Q9H0B6 217-480 S328N): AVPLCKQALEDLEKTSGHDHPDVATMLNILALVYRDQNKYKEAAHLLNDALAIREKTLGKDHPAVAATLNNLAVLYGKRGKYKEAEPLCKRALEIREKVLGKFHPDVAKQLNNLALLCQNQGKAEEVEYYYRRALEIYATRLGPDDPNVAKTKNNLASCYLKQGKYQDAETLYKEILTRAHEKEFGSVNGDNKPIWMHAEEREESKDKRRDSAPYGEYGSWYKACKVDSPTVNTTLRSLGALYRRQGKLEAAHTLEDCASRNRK

Kd: 18.7 µM
dH: -15.9 kcal/mol
stoichiometry N: 1.18
B1: JIP1 peptide (C-terminal residues of JNK-interacting protein 1) (peptide)
peptide: Ac-EYTCPTEDIYLE-OH
notes: also called JIP peptide; source: synthetic peptide (Tufts University Core Facility)
